Biological target: T1, (5)M2+TE (Saccharopolyspora erythraea, UniProt Q03131+Q03133)
T1 construct: a single module of the DEBS PKS fused to the thioesterase (TE) termination region of module 6; made in house; host or cells: E. coli BL21(DE3); ACP4(4) from pNW8 (pET28a), phosphopantetheinylated in vitro with Sfp
Test: Labeling of holo-ACP4(4) with 14C-2a mediated by (5)M2+TE (back-transfer)
Assay type: biochemical
Details: presence and absence of (5)M2+TE
Protocol: Labeling of Holo-ACP4(4) with ^14C-2a Mediated by (5)M2+TE. Holo-ACP4(4) (20 μM) was incubated with 1 mM [1-^14C]-labeled 2a (custom synthesized by Amersham Pharmacia, specific activity 55 mCi/mmol) and 1 μM (5)M2+TE in reaction buffer C for 10 min at 30° C. The protein was precipitated with 75% acetone/H2O for 5 min at −80° C. After washing the pellet with 6.25% (w/v) TCA to remove excess salts followed by 500 μL of 75% acetone/H2O to remove residual, unbound 14 C-2a, the precipitated protein was resuspended in 8 μL of buffer A and 4 μL of SDS sample buffer, and resolved on a 4-20% SDS-PAGE gradient gel (Bio-Rad). The proteins were visualized with Coomassie blue stain and dried, and the radioactivity was detected either on a Packard InstantImager or by exposing the gel to X-ray film.

B1: holo-ACP4(4): DEBS ACP4 catalytic domain with its natural C-terminal linker, phosphopantetheinylated (protein)
chain: HHHHHHNVVDRLAGRSESDQVAGLAELVRSHAAAVSGYGSADQLPERKAFKDLGFDSLAAVELRNRLGTATGVRLPSTLVFDHPTPLAVAEHLRDRLFAASPAVDIGDRLDELEKALEALSAEDGHDDVGQRLESLLRRWNSRRADAPSTSAISEDASDDELFSMLDQRFGGGEDL
modifications: non-natural residues
notes: DEBS ACP4 catalytic domain with its natural C-terminal linker, phosphopantetheinylated
radiolabeling of ACP by 14C-2a: radiolabeled only in the reaction containing (5)-M2+TE
